Paper PMC7527728, “CPSF6-Dependent Targeting of Speckle-Associated Domains Distinguishes Primate from Nonprimate Lentiviral Integration” (mBio, 2020)
Primed or numbered codes have the meaning given here. Ends that are not written are not given here. FITC′ = fluorescein isothiocyanate label; Ahx = NCCCCCC(=O)O

B1: BIV capsid N-terminal domain (NTD) protein (domain or fragment)
chain: PAITTQDGTPRFDPDLMKQLKIWSDATERNGVDLHAVNILGVITANLVQEEIKLLLNSTPKWRLDVQLIESKVREKENAHRTWKQHHPEAPKTDEIIGKGLSSAEQATLISVECRETFRQWVLQAAMEVAQAKHATPG
B2: MLV capsid N-terminal domain (NTD) protein (domain or fragment)
chain: PLRAGGNGQLQYWPFSSSDLYNWKNNNPSFSEDPGKLTALIESVLITHQPTWDDCQQLLGTLLTGEEKQRVLLEARKAVRGDDGRPTQLPNEVDAAFPLERPDWDYTTQAGRNHLVHYRQLLLAGLQNAGRS
B3: FIV capsid N-terminal domain (NTD) protein (domain or fragment)
chain: PIQTVNGVPQYVALDPKMVSIFMEKAREGLGGEEVQLWFTAFSANLTPTDMATLIMAAPGCAADKEILDESLKQLTAEYDRTHPPDAPRPLPYFTAAEIMGIGLTQEQQAEARFAPARMQCRAWYLEALGKLAAIKA
B4: EIAV capsid N-terminal domain (NTD) protein (domain or fragment)
chain: PIMIDGAGNRNFRPLTPRGYTTWVNTIQTNGLLNEASQNLFGILSVDCTSEEMNAFLDVVPGQAGQKQILLDAIDKIADDWDNRHPLPNAPLVAPPQGPIPMTARFIRGLGVPRERQMEPAFDQFRQTYRQWIIEAMSEGIKVMIG

Tests used:
Experiment in all cases: fluorescence polarisation; 150 nM FITC-Ahx-labelled peptide mixed with increasing capsid NTD protein (2 μM to 2 mM) in 50 mM Tris-HCl pH 8.0, 50 mM NaCl, 384-well plates; one-site specific binding model; the EIAV constants are called apparent
Settings in all cases: both partners purified
[1] = biological target: T1, CPSF6_(276–290/F284A) peptide (human, F284A (stands in the printed letters))
T1 construct: cleavage and polyadenylation specificity factor 6 (CPSF6), human, residues 276-290 counted on the 551-residue isoform CPSF6[551], with F284A; source: synthetic peptide (GenScript)

CPSF6_(276–290) peptide [2] = biological target: T2, CPSF6_(276–290) peptide (human, N-terminal fluorescein isothiocyanate (FITC)-Ahx)
T2 construct: also called CPSF6 peptide; fluorescently labeled CPSF6_(276–290) peptide; source: synthetic peptide (GenScript)

CPSF6_(276–290) peptide [3] = biological target: T2, CPSF6_(276–290) peptide; remark: listed apart in the source

Row | Binder | Kd [1] | Kd (CPSF6_(276–290) peptide [2]) | Kd (CPSF6_(276–290) peptide [3])
1 | B1 | > 3 mM | > 5 mM | > 2 mM
2 | B2 | – | > 5 mM | > 2 mM
3 | B3 | > 7 mM | > 4 mM | > 2 mM
4 | B4 | 0.466 mM | – | –
